Key:
Assay type in all cases: in vivo, mice
striatum (STR) = test: Promoter screening: YFP-expressing neurons after injection of AAVs into the SNr, striatum; conditions: numbers of YFP-expressing neurons per animal
Source text: (§1) To find promoters that offer high levels of expression in MSNs, gene expression databases were scanned to identify a list of eight genes that have highly enriched striatal expression compared to other parts of the basal ganglia (BG). Genes highly expressed in the striatum, but not other parts of the basal ganglia, were first selected as candidates.
(§2) Brain profiles of two epigenetic marks for enhancers and promoters, monomethylation of histone H3 lysine 4 (H3K4me1) and acetylation of histone H3 lysine 27 (H3K27ac) were checked and approximately 2 kilobase-long sequences around the transcriptional start site (TSS) that have high levels of H3K4me1 and/or H3K27ac were identified in mouse brain. Homologous sequences at equivalent positions of the human genome were then cloned onto an AAV backbone, and the activity of the homologous sequences in directing reporter expression was tested in mice after injections of AAVs into the SNr (FIG. 3A-C, TABLE 3).
(§3) G88P2 (2259 bp) was cloned with the following primers: 5′-[…] (SEQ ID NO.: 36) and 3-[…] (SEQ ID NO.: 37). To increase the payload of AAV genome, the G88P2 promoter was shorted using restriction enzymes, and two derivatives, G88P3 and G88P7, were made which were 1395-bp and 896-bp long, respectively (FIG. 3A-3C). Comparative efficiency in labeling MSNs for the two shortened promoters was observed. For mice that received viral injections into the SNr, viruses expressing EYFP driven by G88P3 and G88P7 promoters labeled 3.7±0.66×104 and 3.95±0.73×104 MSNs per mouse, respectively, compared to 1.61±0.16×104 labeled MSNs by hSyn promoter (FIG. 4B).
(§4) Region-selective promoter identification was based on the Allen Brain Atlas in situ hybridization (ISH) data (mouse.brain-map.org/). Genes highly expressed in the striatum but not in other parts of the basal ganglia were first selected as candidates. H3K4me 1 and H3K27ac are known epigenetic marks for active promoters and enhancers. Thus, we identified regions with high levels of these two chromatin modification marks in mouse brain as candidate regions based on the ENCODE annotation data on the UCSC Genome Browser (genome.ucsc.edu/). To further extend the promoters' potential application in primates, the sequences of interest were PCR-amplified from human genomic DNA. Based on the above strategies, GPR88 was selected as a candidate gene. […]
(§5) Images were acquired using a confocal microscope (Carl Zeiss, LSM880) and an Axiolmager. […] Every sixth section was analyzed, and numbers of EYFP+ cells were multiplied by six to acquire the approximate total number and mean number of cells per animal. Images were processed using ImageJ (NIH, USA), and final quantifications were independently performed manually by two blinded experimenters.

substantia nigra (SN) = test: Promoter screening: YFP-expressing neurons after injection of AAVs into the SNr, substantia nigra; conditions: numbers of YFP-expressing neurons per animal
Source text: as §1, §2, §3, §4, §5

[1] = test system: striatonigral projection neurons (D1 MSNs); test: Retrograde labeling of striatal MSNs after AAV injection into the SNr, EYFP+ cell counting; conditions: for labeled neurons, reporter expression in MSNs by promoter (FIG. 4B), mean±SEM: promoter comparison
Protocol: To improve efficiency, multiple rounds of mutations of AAV capsids were performed on a series of different serotypes. Mutations were introduced at three sites in the AAV8 capsid protein to make AAV8R, including N385D, insertion of […] (SEQ ID NO: 31) at position 588, and TS711-7121N. Two additional mutations of V183E and N41 IS were incorporated into the AAV8R12 capsid protein (FIG. 1A). The labeling pattern of the AAV8R12 capsid and G88 promoter combination was determined.
was inserted at the N587-R588 position; two other point mutations of the AAV2 Cap protein were made to develop rAAV2-retro. Similar mutations were then placed at equivalent positions for four other AAV serotypes (FIGS. 1A-1C and 25, TABLE 1), AAV1/5/6/8 (FIG. 1A). […] When administered into the SNr, 4.86±0.22 times EYFP positive MSNs in mice infected by AAV8R-hSyn-EYFP were observed as compared to those infected by rAAV2-retro-hSyn-EYFP (FIG. 2A-2C).
Baseline infectivity of rAAV2-retro was approximately 0.2±0.03×10^4 cells per striatal hemisphere (using a hSyn promoter) (TABLE 2). […] Compared to the current standard retrograde AAV, rAAV2-retro, AAV8R12 labeled 7.72±0.78-times more MSNs after nigral delivery (FIG. 2B-2C, TABLE 1). […] The AAV8R12 was generated using the AAV8R plasmid as a template.
Mice were anesthetized with sodium pentobarbital (Nembutal; 80 mg/kg, i.p.), and then placed into a stereotaxic device (KOPF). Eye cream was applied on both corneas to avoid dehydration. The skull above the targeted areas was thinned with a dental drill and carefully removed. Injections were conducted with a 10 μL syringe connected to a 33-Gauge needle (Neuros; Hamilton), using a microsyringe pump (Legato 130, KD Scientific). A total volume of 200 nL virus was injected into the SNr at a speed of 20 nL/min. The coordinates for the SNr were 3.4 mm posterior, 1.3 mm lateral, 4.8 mm ventral to the bregma.
Images were acquired using a confocal microscope (Carl Zeiss, LSM880) and an Axiolmager. Z1 microscope with apotome (Carl Zeiss). Brain structures were identified microscopically and in digital photos using a mouse brain atlas. To analyze the number of EYFP+ cells in the striatum, slices from rostral to caudal striatum were used. Every sixth section was analyzed, and numbers of EYFP+ cells were multiplied by six to acquire the approximate total number and mean number of cells per animal. Images were processed using ImageJ (NIH, USA), and final quantifications were independently performed manually by two blinded experimenters.

[2] = test system: MSNs in nucleus accumbens; test: Retrograde labeling of accumbal MSNs after delivery into ventral pallidum or lateral hypothalamus; conditions: stereotaxic delivery into ventral pallidum or lateral hypothalamus

Molecule | Activity Level STR (striatum (STR)) | Activity Level SN (substantia nigra (SN)) | labeled neurons, reporter expression in MSNs by promoter (FIG. 4B), mean±SEM ([1]; n=3 mice per group) | labeling of MSNs in nucleus accumbens [2] | EYFP positive / labeled MSNs compared to rAAV2-retro ([1]; after nigral delivery, hSyn-EYFP) [times] | labeled striatonigral projection neurons (FIG. 2C), mean±SEM ([1]; capsid comparison, injection into SNr of wild type mice, n=3 mice per group) | Mean (AAVs with capsid and promoter) ([1]; labeled cells after nigral injection in mice, b188 refers to it as cells per striatal hemisphere, SD and SEM in own columns)
R9P1: promoter from gene RGS9, 2152 bp; SEQ ID NO: 47 | +++ (10k-25k) | + (<5k) |  |  |  |  | 
G88P2: 2259-bp promoter from the gene GPR88; SEQ ID NO: 44 | ++++ (>25k) | + (<5k) | 36290±3705 |  |  |  | 
G88P7: 896-bp shortened GPR88 promoter; SEQ ID NO: 46 (nucleic acid, listed as Homo sapiens) DNA: ATGCCAAGCGTGGAAAGGCTGTCTTTTCCCTGGATGATGTATAACTAAGCAGGAGAGAGCTTCGAGTGGGTTCACCACATCAGCCACCACTCCTGCTTCTGAGCACAGGGTGCTCTCCTCTTGAGCTCAGCTTCTGCTTTTGCAGCCAAGCATTCTTGCTGCTGCTGCCTGCCTGCCCACCCGCCTGGGCTTGCAGCCCGCCACTTTACTTTCTCCAGCCCTGATACCAGCTGAGAAGTCTCCCTGCAGCTGCTAGTTCCTGCCCAGGACCATGTGTGTGGATGCTGCTTGGGAGAAGCGGGCACTTGCTCCTGGCACTGATCCCAGCTGAGTTTCTCCTGTTGATTTCTGGACCACTGATGCTGTTGCTGAGGAGGTATTTCCCGGCATCCCTCCCCCTGAGACACCGGCTAAGGACCAGCCTAAACGCAAGGTAACCTTCACCTCTTTCCCATGGGATTTTCCCCAGCTGGGATATCTCTGCTTTCTCCTGGAACTAGGTCCTCCAGCTGGCAACATATCTCTCTCTCTCTCTCTCTCTCTCTCTCTCTCTCTCTCTCTGTGTGTGTGTGTGTGTGTTGGGGGAGAAGAGGAGACTGTTTTAGGTATTGCTCTGTCCTAGGGCTTCCCCGATACCTGCTGAATCCAATGCAAAGTGGCCTTTCCCCTGGCTCTGGAGACATTTCCGAGGCAGGCACCTGTCATCTGCCACCCCCGTCCTCCTCCTCGAGCTCCCTTTCTCCCCCTCCCCCAGCCCATTATTCTGCTTCAGCCTTTTGTGTCAGTGGCAGAGGGCTGAAGGGATGTCTTTGCCCTTCTGGCAGGCAGGACAGTGTCAGGATGGACCGCGCTGCCAGAAGCCGACGCTAGCGAGGGAGGTGTGAAGAGTTGGCCAG | ++++ (>25k) | + (<5k) | 39460±7281 |  |  |  | 
AAV8R: AAV8 capsid with N385D, insertion of SEQ ID NO: 31 at position 588 and TS to IN mutation; Cap SEQ ID NO: 1 (protein) MAADGYLPDWLEDNLSEGIREWWALKPGAPKPKANQQKQDDGRGLVLPGYKYLGPFNGLDKGEPVNAADAAALEHDKAYDQQLQAGDNPYLRYNHADAEFQERLQEDTSFGGNLGRAVFQAKKRVLEPLGLVEEGAKTAPGKKRPVEPSPQRSPDSSTGIGKKGQQPARKRLNFGQTGDSESVPDPQPLGEPPAAPSGVGPNTMAAGGGAPMADNNEGADGVGSSSGNWHCDSTWLGDRVITTSTRTWALPTYNNHLYKQISNGTSGGATNDNTYFGYSTPWGYFDFNRFHCHFSPRDWQRLINNNWGFRPKRLSFKLFNIQVKEVTQNEGTKTIANNLTSTIQVFTDSEYQLPYVLGSAHQGCLPPFPADVFMIPQYGYLTLNDGSQAVGRSSFYCLEYFPSQMLRTGNNFQFTYTFEDVPFHSSYAHSQSLDRLMNPLIDQYLYYLSRTQTTGGTANTQTLGFSQGGPNTMANQAKNWLPGPCYRQQRVSTTTGQNNNSNFAWTAGTKYHLNGRNSLANPGIAMATHKDDEERFFPSNGILIFGKQNAARDNADYSDVMLTSEEEIKTTNPVATEEYGIVADNLQRGNLADQDYTKTARQAATADVNSQGALPGMVWQNRDVYLQGPIWAKIPHTDGNFHPSPLMGGFGLKHPPPQILIKNTPVPADPPTTFNQSKLNSFITQYSTGQVSVEIEWELQKENSKRWNPEIQYTSNYYKSINVDFAVNTEGVYSEPRPIGTRYLTRNL |  |  |  | robust labeling of MSNs | 4.86±0.22 | 10092±463.9 | 10092
G88P3: 1395-bp shortened GPR88 promoter; SEQ ID NO: 45 (nucleic acid, listed as Homo sapiens) DNA: TCTAGATGTACCACTGACATCTGCTTTAAATCTTTTGCCCATTTCATTTTTACCCTCTAACCATTTCATTACTAAAACACAAAACAAACTCCGGAAAGGAGTTTGTTGATGAGAAAACACTGAAAGTACGATTTAAATTGAGGAATGGAGATTTTCTGTGGATAATTGTCTATGTTCCACTTTACCAAAGAAAAATGAATTTCAAGTAGTGCATAAAGTAATTCTCGTTAAAAAATGTGGGAATAAAGAGATCAGTCCTGGGTACTGGGAATATATTTATCTCACAGAAAAATCTTGCCCACAAAATGCATCAGACTGAGATGAAATACTCTAGGGTATATTAAATTTTATTCTAATATTGAAGGGAGGGAAAAAAAGGACGGAAAGAAAAATGAAACAGGATGAAAAATAAGGTGATTGGGAGAGAGAAAAGACAGAGAAACTTGTTAACGACAGGACTTTCTGAGCAAGATATTTTTCTTCCTTTTACAAGTTGGAAGCTATTGAATAATTCATGCCAAGCGTGGAAAGGCTGTCTTTTCCCTGGATGATGTATAACTAAGCAGGAGAGAGCTTCGAGTGGGTTCACCACATCAGCCACCACTCCTGCTTCTGAGCACAGGGTGCTCTCCTCTTGAGCTCAGCTTCTGCTTTTGCAGCCAAGCATTCTTGCTGCTGCTGCCTGCCTGCCCACCCGCCTGGGCTTGCAGCCCGCCACTTTACTTTCTCCAGCCCTGATACCAGCTGAGAAGTCTCCCTGCAGCTGCTAGTTCCTGCCCAGGACCATGTGTGTGGATGCTGCTTGGGAGAAGCGGGCACTTGCTCCTGGCACTGATCCCAGCTGAGTTTCTCCTGTTGATTTCTGGACCACTGATGCTGTTGCTGAGGAGGTATTTCCCGGCATCCCTCCCCCTGAGACACCGGCTAAGGACCAGCCTAAACGCAAGGTAACCTTCACCTCTTTCCCATGGGATTTTCCCCAGCTGGGATATCTCTGCTTTCTCCTGGAACTAGGTCCTCCAGCTGGCAACATATCTCTCTCTCTCTCTCTCTCTCTCTCTCTCTCTCTCTGTGTGTGTGTGTGTGTGTTGGGGGAGAAGAGGAGACTGTTTTAGGTATTGCTCTGTCCTAGGGCTTCCCCGATACCTGCTGAATCCAATGCAAAGTGGCCTTTCCCCTGGCTCTGGAGACATTTCCGAGGCAGGCACCTGTCATTTGCCACCCCCGTCCTCCTCCTCGAGCTCCCTTTCTCCCCCTCCCCCAGCCCATTATTCTGCTTCAGCCTTTTGTGTCAGTGGCAGAGGGCTGAAGGGATGTCTTTGCCCTTCTGGCAGGCAGGACAGTGTCAGGATGGACCGCGCTGCCAGAAGCCGACGCTAGCGAGGGAGGTGTGAA | ++++ (>25k) | + (<5k) | 37026±6646 |  |  |  | 

From patent publication US20250382346A1, “NEURONAL PROMOTERS AND USES THEREOF” (priority 2023, published 2025)
